In patent publication US20240197919A1 (CALIFORNIA INSTITUTE OF TECHNOLOGY, published 2024):

T1: Ly6a-Fc fusion protein (murine, UniProt P05533 27-112)
T1 construct: Captured on a protein A sensor chip for SPR; also called Ly6a-Fc protein; not shown: Fc part
T1 sequence: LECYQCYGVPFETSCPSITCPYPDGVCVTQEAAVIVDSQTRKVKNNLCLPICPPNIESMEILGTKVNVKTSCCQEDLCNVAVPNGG


Biological target: T1, Ly6a-Fc fusion protein
Assay: SPR, Ly6a-Fc captured on protein A chip, rAAV injected as analyte

Binder	binding result
AAV-X1 (other, Tested as an assembled rAAV particle; also called AAV-CAP.X1) MAADGYLPDWLEDNLSEGIREWWALKPGAPQPKANQQHQDNARGLVLPGYKYLGPGNGLDKGEPVNAADAAALEHDKAYDQQLKAGDNPYLKYNHADAEFQERLKEDTSFGGNLGRAVFQAKKRLLEPLGLVEEAAKTAPGKKRPVEQSPQEPDSSAGIGKSGAQPAKKRLNFGQTGDTESVPDPQPIGEPPAAPSGVGSLTMASGGGAPVADNNEGADGVGSSSGNWHCDSQWLGDRVITTSTRTWALPTYNNHLYKQISNSTSGGSSNDNAYFGYSTPWGYFDFNRFHCHFSPRDWQRLINNNWGFRPKRLNFKLFNIQVKEVTDNNGVKTIANNLTSTVQVFTDSDYQLPYVLGSAHEGCLPPFPADVFMIPQYGYLTLNDGSQAVGRSSFYCLEYFPSQMLRTGNNFQFSYEFENVPFHSSYAHSQSLDRLMNPLIDQYLYYLSRTINGSGQNQQTLKFSVAGPSNMAVQGRNYIPGPSYRQQRVSTTVTQNNNSEFAWPGASSWALNGRNSLMNPGPAMASHKEGEDRFFPLSGSLIFGKQGTGRDNVDADKVMITNEEEIKTTNPVATESYGQVATNHQSAQGNNTRSVAQAQTGWVQNQGILPGMVWQDRDVYLQGPIWAKIPHTDGNFHPSPLMGGFGMKHPPPQILIKNTPVPADPPTAFNKDKLNSFITQYSTGQVSVEIEWELQKENSKRWNPEIQYTSNYYKSNNVEFAVNTEGVYSEPRPIGTRYLTRNL	no binding
AAV-X1.1 (other, Tested as an assembled rAAV particle; also called AAV9-X1.1) MAADGYLPDWLEDNLSEGIREWWALKPGAPQPKANQQHQDNARGLVLPGYKYLGPGNGLDKGEPVNAADAAALEHDKAYDQQLKAGDNPYLKYNHADAEFQERLKEDTSFGGNLGRAVFQAKKRLLEPLGLVEEAAKTAPGKKRPVEQSPQEPDSSAGIGKSGAQPAKKRLNFGQTGDTESVPDPQPIGEPPAAPSGVGSLTMASGGGAPVADNNEGADGVGSSSGNWHCDSQWLGDRVITTSTRTWALPTYNNHLYKQISNSTSGGSSNDNAYFGYSTPWGYFDFNRFHCHFSPRDWQRLINNNWGFRPKRLNFKLFNIQVKEVTDNNGVKTIANNLTSTVQVFTDSDYQLPYVLGSAHEGCLPPFPADVFMIPQYGYLTLNDGSQAVGRSSFYCLEYFPSQMLRTGNNFQFSYEFENVPFHSSYAHSQSLDRLMNPLIDQYLYYLSRTIDGAATKNQTLKFSVAGPSNMAVQGRNYIPGPSYRQQRVSTTVTQNNNSEFAWPGASSWALNGRNSLMNPGPAMASHKEGEDRFFPLSGSLIFGKQGTGRDNVDADKVMITNEEEIKTTNPVATESYGQVATNHQSAQGNNTRSVAQAQTGWVQNQGILPGMVWQDRDVYLQGPIWAKIPHTDGNFHPSPLMGGFGMKHPPPQILIKNTPVPADPPTAFNKDKLNSFITQYSTGQVSVEIEWELQKENSKRWNPEIQYTSNYYKSNNVEFAVNTEGVYSEPRPIGTRYLTRNL	no binding
